The values that follow come from US20140274874A1 (Amgen, published 2014).

To fix the notation:
T1: MMP2 (human pro-MMP2 activated with APMA) (human, UniProt P08253 30-660)
T1 sequence (looked up): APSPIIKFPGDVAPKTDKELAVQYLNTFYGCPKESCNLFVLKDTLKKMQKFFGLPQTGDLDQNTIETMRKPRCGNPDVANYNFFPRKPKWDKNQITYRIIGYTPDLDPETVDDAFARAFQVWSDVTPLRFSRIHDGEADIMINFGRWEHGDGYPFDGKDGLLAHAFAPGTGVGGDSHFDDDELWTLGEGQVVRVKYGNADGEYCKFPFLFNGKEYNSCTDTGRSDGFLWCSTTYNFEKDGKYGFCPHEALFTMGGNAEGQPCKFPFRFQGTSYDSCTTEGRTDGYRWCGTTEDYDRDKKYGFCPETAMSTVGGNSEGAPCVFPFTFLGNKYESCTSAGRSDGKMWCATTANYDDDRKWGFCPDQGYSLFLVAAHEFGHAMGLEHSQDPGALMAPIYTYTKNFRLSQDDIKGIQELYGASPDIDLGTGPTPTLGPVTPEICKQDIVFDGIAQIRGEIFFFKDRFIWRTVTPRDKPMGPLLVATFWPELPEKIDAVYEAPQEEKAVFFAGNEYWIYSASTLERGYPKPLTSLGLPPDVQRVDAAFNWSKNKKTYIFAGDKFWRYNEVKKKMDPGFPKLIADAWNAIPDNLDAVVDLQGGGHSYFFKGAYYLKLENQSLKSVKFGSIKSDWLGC

B1: wild-type TIMP-3 (native human tissue inhibitor of metalloproteinase 3) (other)
chain: CTCSPSHPQDAFCNSDIVIRAKVVGKKLVKEGPFGTLVYTIKQMKMYRGFTKMPHVQYIHTEASESLCGLKLEVNKYQYLLTGRVYDGKMYTGLCNFVERWDQLTLSQRKGLNYRYHLGCNCKIKSCYYLPCFVTSKNECLWTDMLSNFGYPGYQSKHYACIRQKGGYCSWYRGWAPPDKSIINATDP
B2: TIMP-3 mutein T63N, K65T (other)
chain: B1 chain with T40N, K42T
B3: TIMP-3 mutein K45S, F57N (other)
chain: B1 chain with K22S, F34N
B4: TIMP-3 mutein P56N, G58T (other)
chain: B1 chain with P33N, G35T
B5: TIMP-3 mutein F57N (other)
chain: B1 chain with F34N

Changes are numbered by the printed parent chain. Numbers in names are those of the source.

The target in one experiment is T1, MMP2 (human pro-MMP2 activated with …). Kind of experiment: cell-based or functional assay.
As for B1, the “MMP2 IC50” value came out at 600 pM.

For B2, the “MMP2 IC50” value was 800 pM.

In the case of B3, the “MMP2 IC50” value came out at 300 pM.

For the molecule B4, the “MMP2 IC50” value is 1000 pM.

As to B5, the “MMP2 IC50” value came out at 500 pM.

A further experiment deals with catalytic domain of human MMP9 (human, UniProt P14780 107-444, limits assumed). The experiment is described as follows: cell-based or functional assay.
catalytic domain of human MMP9, sequence (P14780 107-444 limits assumed): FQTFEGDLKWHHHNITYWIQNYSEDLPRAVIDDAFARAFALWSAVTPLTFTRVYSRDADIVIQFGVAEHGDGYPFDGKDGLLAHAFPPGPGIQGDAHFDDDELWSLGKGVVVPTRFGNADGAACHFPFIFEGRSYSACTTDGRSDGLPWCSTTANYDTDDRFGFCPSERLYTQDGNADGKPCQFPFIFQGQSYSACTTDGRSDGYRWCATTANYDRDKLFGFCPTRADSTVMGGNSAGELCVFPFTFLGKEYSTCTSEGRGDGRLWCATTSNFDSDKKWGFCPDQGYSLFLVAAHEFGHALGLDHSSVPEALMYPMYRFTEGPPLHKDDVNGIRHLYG
On to B1, for which the “MMP9 IC50” value turned out to be 1 nM.

Take B2: the “MMP9 IC50” value came to 0.5 nM.

For B3, the “MMP9 IC50” value is 4 nM.

As for B4, the “MMP9 IC50” value was determined as 2.3 nM.

As to B5, the “MMP9 IC50” value was 4.6 nM.

Another experiment concerns the target MMP13 (active MMP13, or pro-MMP-13 activated with APMA) (UniProt P45452 20-471, limits assumed). Kind of experiment: cell-based or functional assay.
Consider B1, for which the “MMP13 IC50” value was 0.9 nM.

As for B2, the “MMP13 IC50” value was determined as 2.2 nM.

With B4, the “MMP13 IC50” value was found to be 3.1 nM.

In the case of B5, the “MMP13 IC50” value was found to be 0.5 nM.
